Test results published in patent US20240173424A1, “ANTI-NECTIN-4-ANTIBODY EXATECAN CONJUGATES” (EMERGENCE THERAPEUTICS AG, priority 2021, published 2024).

Key:
Type in all cases: binding
human Nectin-4 [1] = assay: Flow cytometry of MDA-MB231 transfected with Flag-tagged Nectin-4; settings: MDA-MB231 transfected with Nectin-4, 0.3 ng/ml-5 μg/mL
Method: Detection by flow cytometry. • Flow cytometry analysis of MDA-MB231 transfected with the N-terminal Flag-tagged epitope of Nectin-4 using a dose range (0.3 ng/ml-5 μg/mL) of Ch-15A7.5 or Ch-5A12.2 antibodies Parental MDA-MB231 cells are included as controls. Cells were then stained with phycoerythrin conjugate goat anti human Fc antibody. The normalized mean fluorescence intensity is shown. Inlay: staining of parental MDA-MB231 cells with anti Nectin-1, -2 and -3 mAbs ([…]). Mean fluorescence intensity is represented.
Human breast carcinoma cell line MDA-MB231 (ATCC, Manassas, VA) was cultured in DMEM supplemented with 10% fetal bovine serum, 50 IU/mL penicillin, 50 μg/mL streptomycin and 2 mM glutamine. The cells were transfected with expression vector p3XFLR4.C1 containing a PVRL4 cDNA. Human triple negative breast cancer cell line SUM190PT (BioIVT, Westbury, NY) was cultures in Ham's F12 medium with 5% fetal bovine serum, 1% non-essential amino acids, 1% Hepes, 1% insulin, 1 μg/mL hydrocortisone, 6.8 ng/ml Triiodo L-tyrosine, 100 IU/mL penicillin, 100 μg/mL streptomycin and 2 mM glutamine. Chinese hamster ovary CHO cell line was cultured in DMEM supplemented with 10% fetal bovine serum, 100 IU/mL penicillin, 100 μg/mL streptomycin and 2 mM glutamine. […]

human Nectin-4 [2] = assay: ELISA on coated Nectin-4 Fc fusion proteins (Nec4-VCC, Nec4-V); settings: ELISA
Method: (§1) Detection by ELISA. • Ninety-six-wells plates were coated, as indicated, with 5 μg/mL Nectin-1 extracellular domain Fc fusion recombinant protein (Nec1-VCC), or Nectin-4 IgV-like domain Fc fusion recombinant protein (Nec4-V), or Nectin-4 extracellular domain Fc fusion recombinant protein (Nec4-VCC) overnight at 4° ° C.
FIG. 3: Characterization of Ch-15A7.5 epitope. Competition assay was performed by ELISA. • Ninety-six-wells plates were coated with 5 μg/mL of Nectin-4 extracellular domain Fc fusion recombinant protein (Nec4-VCC) overnight at 4° C. Binding of peroxidase-conjugated Ch-15A7.5 mAb (5 μg/mL) was measured in presence of increasing concentrations (2.75 ng/ml-6 μg/mL) of Rituximab, Ch-15A7 mAb, Enfortumab (HA22), Ch-N41 mAb and Ch-14A5 mAb.
(§2) A sandwich enzyme-linked immunosorbent assay was used to control specificity of Ch-15A7.5 antibody and to perform competition assays between different mAbs. Ninety-six-wells plates were coated with 10 nM of Nectin-4-VCC-Fc, Nectin-1-VCC-Fc (entire extracellular part) or Nectin-4-V-Fc (comprising only the IgV domain) overnight at +4° C. After washes and saturation with PBS 1% BSA, cells were incubated for 2 hours at 25° C. with 10 nM of peroxidase-conjugated Ch-15A7.5 mAb. In the case of competition, binding of 0.5 nM of peroxidase conjugated Ch-15A7.5 mAb was measured in the presence of variable concentration (0.018 nM to 40 nM) of “cold” mAb. One hundred μL of peroxidase substrate was added (One Step ABST, Pierce), and OD was red at 405 nm.

[3] = biological target: T1, Nectin-1 extracellular domain (Homo sapiens, UniProt Q15223); assay: ELISA on coated Nectin-1 extracellular domain Fc fusion protein (Nec1-VCC)
T1 construct: Nectin-1 extracellular domain Fc fusion recombinant protein (Nec1-VCC)
T1 sequence (Q15223 31-355 limits assumed): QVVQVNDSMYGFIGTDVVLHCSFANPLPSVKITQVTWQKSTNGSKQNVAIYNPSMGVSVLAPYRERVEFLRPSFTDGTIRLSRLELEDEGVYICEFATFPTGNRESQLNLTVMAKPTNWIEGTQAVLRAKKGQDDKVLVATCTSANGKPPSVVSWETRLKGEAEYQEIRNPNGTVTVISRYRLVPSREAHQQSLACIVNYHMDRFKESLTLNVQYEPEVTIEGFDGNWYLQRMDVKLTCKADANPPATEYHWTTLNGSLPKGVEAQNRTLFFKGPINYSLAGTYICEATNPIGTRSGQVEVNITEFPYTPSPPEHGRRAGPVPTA
Method: as §1, §2

[4] = biological target: T2, Nectin-4 expressed by normal differentiated human keratinocytes (NHEK) (Homo sapiens, UniProt Q96NY8); assay: Flow cytometry on normal differentiated human keratinocytes (NHEK); settings: dose range 8 PM-33 nM
T2 construct: Cells or cell lines (10,000-50,000) expressing Nectin-4 (naturally or transfected); endogenous in cells; host or cells: NHEK, differentiated with 0.1 mM CaCl2
T2 sequence (Q96NY8 32-510): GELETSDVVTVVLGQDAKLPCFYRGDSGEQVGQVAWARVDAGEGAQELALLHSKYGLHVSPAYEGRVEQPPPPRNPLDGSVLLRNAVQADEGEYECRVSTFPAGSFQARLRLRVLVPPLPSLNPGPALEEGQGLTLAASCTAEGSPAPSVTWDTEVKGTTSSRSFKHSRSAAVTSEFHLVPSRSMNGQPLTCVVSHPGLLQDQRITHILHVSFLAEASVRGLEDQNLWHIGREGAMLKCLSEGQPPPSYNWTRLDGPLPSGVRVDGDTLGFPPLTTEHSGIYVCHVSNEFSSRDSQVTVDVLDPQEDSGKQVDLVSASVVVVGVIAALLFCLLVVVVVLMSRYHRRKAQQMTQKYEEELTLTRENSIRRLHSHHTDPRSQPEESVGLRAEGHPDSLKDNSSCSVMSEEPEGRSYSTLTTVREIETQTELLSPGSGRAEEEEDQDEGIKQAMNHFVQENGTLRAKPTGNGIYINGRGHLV
Method: FIG. 15: Differential binding of Ch-15A7.5 and its humanized variants to Nectin-4 expressed by tumor cell line and normal differentiated human keratinocytes. Detection by flow cytometry.
Flow cytometry analysis of TNBC cell line (SUM190, upper panels) and normal differentiated (0.1 mM CaCl2) human keratinocytes (NHEK, lower panels) using a dose range (8 PM-33 nM) of Ch-5A12.2, Ch-15A7.5 and its humanized variants 15A7.5-H1L2, -H1L3, -H2L2, -H2L3, -H3LO, -H3L2, -H3L3. Cells were then stained with phycoerythrin conjugate goat anti human Fc antibody. Normalized mean fluorescence intensities are shown. Non-linear curve fitting (4 parameters) was done with GraphPad Prism 9 software.
Cells or cell lines (10,000-50,000) expressing Nectin-4 (naturally or transfected) were incubated with dose range of the indicated antibodies. After washing, cells were then stained with phycoerythrin-conjugated goat anti human antibody (5 μg/mL) Jackson Immuno Research). After fixation, cells were stained with a viability dye (e780, Invitrogen) before flow cytometry acquisition.

B1: Ch-15A7.5: chimeric antibody of 15A7.5 with Fc-silent human Fc (antibody, V domains shown)
VH: EVKLVESGGGLVQPGGSRKLSCAASGFTFSNYGMAWVRQAPGKGPEWVAFISNLAYGINYADTVTGRFTISRENAKNTLYLEMRSLRSEDTAMYYCARGARATGWFAYWGQGTLVTVSA
VL: DIVMTQSQKFMSTSIGDRVSVTCKASQNVDTHVAWYQEKPGQSPKALIYSASYRYSGVPDRFTGSGSGTDFTLTISNVQSEDLADYFCQQYNSYPLTFGGGTKLEIK
- recognition of human Nectin-4 (human Nectin-4 [1]): recognize human Nectin-4
- recognition of Nectin-4 IgV-like domain (human Nectin-4 [2]; Nec4-V coated): recognizes IgV-like domain of human Nectin-4
- recognition of Nectin-4 extracellular domain (human Nectin-4 [2]; Nec4-VCC coated): recognizes the Nectin-4 extracellular domain
- recognition of Nectin-1 extracellular domain [3]: not the Nectin-1 extracellular domain
- apparent EC50 towards keratinocytes in comparison to that of Ch-5A12.2 [4]: much lower apparent EC50
